Our source for the IC50 values is US20220041692A1.

Bridge positions count the residues as written; N and C are the ends. Ends that are not written are not given here.

This assay has as its target polyclonal mouse anti-TSHR antibodies contained in sera from Ad-TSHR-immunized mice. The experiment in a line: competition ELISA: sera pre-incubated with peptide 19, binding of polyclonal anti-TSHR antibodies to coated TSHR-Fc. (In general: ELISA stands for enzyme-linked immunosorbent assay.)

Consider CHQEEDFRVTC (disulfide 1-11) [cyclic peptide 19], for which the IC50 was 20 nM.

One may read the IC50 as the point on the concentration scale where inhibition reaches its midpoint. Lower therefore signals greater potency in that assay.
